For 1 substance, Kd results are on record in article PMC8546227.

The target of the experiment is Hoc^-Soc^- T4 phage capsid (bacteriophage T4) (UniProt P19896). Briefly: co-sedimentation.
Sequence of UniProt P19896 (P19896 whole entry, looked up): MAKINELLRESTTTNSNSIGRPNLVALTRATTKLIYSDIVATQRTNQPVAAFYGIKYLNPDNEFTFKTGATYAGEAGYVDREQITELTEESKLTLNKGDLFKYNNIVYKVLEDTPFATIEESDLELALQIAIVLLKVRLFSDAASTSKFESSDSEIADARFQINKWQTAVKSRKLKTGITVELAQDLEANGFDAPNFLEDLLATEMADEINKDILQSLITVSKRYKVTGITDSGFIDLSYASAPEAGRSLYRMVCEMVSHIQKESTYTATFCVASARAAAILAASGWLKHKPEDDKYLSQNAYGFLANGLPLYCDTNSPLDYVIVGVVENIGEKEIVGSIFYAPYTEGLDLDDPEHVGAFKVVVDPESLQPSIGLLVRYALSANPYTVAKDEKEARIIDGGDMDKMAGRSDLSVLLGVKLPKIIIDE

For “Soc-3M2e fusion protein (RB69 Soc with three tandem copies of M2e from human, swine and avian influe”, the Kd is 305 nM.
